The target in one data set is T1, GST-OsbZIP23 (Oryza sativa, UniProt Q6Z312).
T1 sequence: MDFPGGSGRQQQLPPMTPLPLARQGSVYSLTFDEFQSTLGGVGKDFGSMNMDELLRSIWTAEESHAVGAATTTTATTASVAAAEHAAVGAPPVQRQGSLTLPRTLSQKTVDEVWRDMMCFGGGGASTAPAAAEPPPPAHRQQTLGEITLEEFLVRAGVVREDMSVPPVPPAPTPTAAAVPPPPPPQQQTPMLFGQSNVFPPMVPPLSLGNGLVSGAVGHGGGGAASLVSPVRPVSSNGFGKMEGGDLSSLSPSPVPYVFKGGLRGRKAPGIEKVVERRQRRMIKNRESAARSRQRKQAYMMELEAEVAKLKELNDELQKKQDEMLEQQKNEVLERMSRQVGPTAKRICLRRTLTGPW
In words: EMSA; EMSA kit (Viagene) binding buffer (composition not given), room temperature, 20 min; 6% native PAGE. Particulars: protein: recombinant; tags: GST (N-terminal, pGEX-4T-3); chain copies: 2; label: 5' biotin; blunt. On the technique in general: Mobility shift assays separate free from complexed probe on a gel.

The next data set addresses T2, GST-OsGF14f (Oryza sativa, UniProt Q06967 1-260).
T2 sequence: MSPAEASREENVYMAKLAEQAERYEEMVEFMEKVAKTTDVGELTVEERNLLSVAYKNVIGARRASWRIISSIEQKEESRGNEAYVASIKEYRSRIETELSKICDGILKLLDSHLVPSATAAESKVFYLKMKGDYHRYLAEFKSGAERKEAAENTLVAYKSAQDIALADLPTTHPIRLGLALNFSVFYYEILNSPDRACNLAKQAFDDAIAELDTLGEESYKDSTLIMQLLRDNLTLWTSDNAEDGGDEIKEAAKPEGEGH
The data set is described as above. Particulars: protein: recombinant; tags: GST (N-terminal, pGEX-4T-3); chain copies: 2; label: 5' biotin; blunt.

B1: OsGF14f promoter probe (dsDNA)
DNA 1: TGGCGCCTTGCCACGTGCCCCCTCCCT
DNA 2: AGGGAGGGGGCACGTGGCAAGGCGCCA
For the molecule B1, the binding result with GST-OsbZIP23 was “binds”.

B2: OsLEA3-2 promoter probe P1 (dsDNA)
DNA 1: ACCCGAGGCACACGTGTCCACCTCACCGGGGCACGTGTCGCGCCGT
DNA 2: ACGGCGCGACACGTGCCCCGGTGAGGTGGACACGTGTGCCTCGGGT
As for B2, the binding result was “no binding” with GST-OsGF14f and “binds” with GST-OsbZIP23.
